Assay results: article PMC6475481 (Journal of the American Chemical Society, 2019)

T1: AqpZ, P60844
T1 chain: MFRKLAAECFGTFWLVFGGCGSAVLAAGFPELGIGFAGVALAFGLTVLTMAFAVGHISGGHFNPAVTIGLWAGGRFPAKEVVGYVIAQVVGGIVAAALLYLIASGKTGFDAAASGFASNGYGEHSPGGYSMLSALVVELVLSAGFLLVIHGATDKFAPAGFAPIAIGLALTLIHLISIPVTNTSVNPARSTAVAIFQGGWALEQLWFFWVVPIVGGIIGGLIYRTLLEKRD


Columns and labels:
AqpZ, P60844 = molecular target: T1, AqpZ, P60844; assay: native MS; settings: remark: other sources report otherwise
native MS = molecular target: the molecule itself; assay: native MS

| stoichiometry N (AqpZ, P60844) | Binder | stoichiometry N (native MS) |
| --- | --- | --- |
| 4 | AqpZ, P60844 1-231 (natural protein) MFRKLAAECFGTFWLVFGGCGSAVLAAGFPELGIGFAGVALAFGLTVLTMAFAVGHISGGHFNPAVTIGLWAGGRFPAKEVVGYVIAQVVGGIVAAALLYLIASGKTGFDAAASGFASNGYGEHSPGGYSMLSALVVELVLSAGFLLVIHGATDKFAPAGFAPIAIGLALTLIHLISIPVTNTSVNPARSTAVAIFQGGWALEQLWFFWVVPIVGGIIGGLIYRTLLEKRD |  |
|  | AmtB (natural protein) VADKADNAFMMICTALVLFMTIPGIALFYGGLIRGKNVLSMLTQVTVTFALVCILWVVYGYSLAFGEGNNFFGNINWLMLKNIELTAVMGSIYQYIHVAFQGSFACITVGLIVGALAERIRFSAVLIFVVVWLTLSYIPIAHMVWGGGLLASHGALDFAGGTVVHINAAIAGLVGAYLIGKRVGFGKEAFKPHNLPMVFTGTAILYIGWFGFNAGSAGTANEIAALAFVNTVVATAAAILGWIFGEWALRGKPSLLGACSGAIAGLVGVTPACGYIGVGGALIIGVVAGLAGLWGVTMLKRLLRVDDPCDVFGVHGVCGIVGCIMTGIFAASSLGGVGFAEGVTMGHQLLVQLESIAITIVWSGVVAFIGYKLADLTVGLRVPEEQEREGLDVNSHGENAYNA | 3 |
